{"source": "patent US20120027687A1", "about": "“FATTY ACID PROTEIN KINASE C ACTIVATORS AND ANTICOAGULANT FOR THE TREATMENT OF STROKE” (priority 2010, published 2012)", "tested_on": "ischemic stroke (MCAO)", "assay": "Transient focal ischemia (MCAO) model of stroke", "assay_type": "in vivo, rat", "settings": "rats; rTPA 6 hours after stroke, with or without bryostatin-1 2 hours later", "method": "A transient animal model of focal ischemia was used for these experiments. The middle cerebral artery (MCA) was surgically dissected and occluded in anesthetized rats by ligature, followed by reperfusion after a defined period (about 2 hours). Animal models transient ischemia via occlusion of the MCA (MCAO) are described in, e.g., Sicard and Fisher, Exp. & Transl. Stroke Med. (2009), vol. 1, pp. 1-7.", "data": [{"molecule": "rTPA: recombinant tissue plasminogen activator, thrombolytic serine protease (protein, UniProt P00750 36-562, looked up) Tissue-type plasminogen …: SYQVICRDEKTQMIYQQHQSWLRPVLRSNRVEYCWCNSGRAQCHSVPVKSCSEPRCFNGGTCQQALYFSDFVCQCPEGFAGKCCEIDTRATCYEDQGISYRGTWSTAESGAECTNWNSSALAQKPYSGRRPDAIRLGLGNHNYCRNPDRDSKPWCYVFKAGKYSSEFCSTPACSEGNSDCYFGNGSAYRGTHSLTESGASCLPWNSMILIGKVYTAQNPSAQALGLGKHNYCRNPDGDAKPWCHVLKNRRLTWEYCDVPSCSTCGLRQYSQPQFRIKGGLFADIASHPWQAAIFAKHRRSPGERFLCGGILISSCWILSAAHCFQERFPPHHLTVILGRTYRVVPGEEEQKFEVEKYIVHKEFDDDTYDNDIALLQLKSDSSRCAQESSVVRTVCLPPADLQLPDWTECELSGYGKHEALSPFYSERLKEAHVRLYPSSRCTSQHLLNRTVTDNMLCAGDTRSGGPQANLHDACQGDSGGPLVCLNDGRMTLVGIISWGLGCGQKDVPGVYTKVTNYLDWIRDNMRP", "values": [{"measurement": "mortality 24 hours later", "value": 44, "unit": "%"}]}]}
